Laboratory results reported in patent US20250296984A1, “THERAPEUTIC AND DIAGNOSTIC AGENTS AND USES THEREOF” (priority 2022, published 2025).

Tests used:
[1] = test system: control CHO cells (US28 negative); assay: FACS binding to US28 negative control CHO cells; set-up: species or system Chinese hamster
Experimental: Flowcytometry was used to analyze cell surface binding by the US28 antibodies. Upon cell harvest, adherent non-infected and US28 overexpressing or HCMV infected cells were washed three times with cell staining buffer (phosphate-buffered saline (PBS (Amresco, Cleveland, 44139, USA) added 0.5% BSA and 0.05% Sodium Azide (NaN3)). The cells were trypisinized and then resuspended in DMEM with 10% FBS to inhibit the action of trypsin. The cells were then pelleted at 400×g for 10 minutes and washed three times in cell staining buffer. Cell viability and cell concentration were measured by tryphan blue viability assay and a cell counter (Countess, Invitrogen, Carlsbad, CA 92008, USA). The cell suspension was adjusted to 1×10^6 cells/mL with ice-cold cell staining buffer. The cells were blocked in 1 ml 10% FBS or 1% BSA in PBS per 1×10^6 cells, vortexed briefly, and incubated for 10-30 minutes to eliminate non-specific staining. The cells were then stained with the respective antibodies and appropriate negative controls.
In both cases (ECD1 and ECD3), the antibodies were added to the cells, vortexed and incubated on ice for 15 to 30 minutes up to overnight and washed twice with cell staining buffer to remove any unbound antibodies. In addition, the CMV Immediate Early Antigen (IE) Alexa488 Ab, MAB810X, 1:50 was included to verify HCMV infected cells in one of the experiments. Because it binds to an intracellular, HCMV encoded protein, it was added after permeabilizing the cells in 70% ethanol for 30 min on ice.
1:500-1:5000 in cell staining buffer of the appropriate fluorescent-conjugated appropriate secondary antibodies were added and incubated on ice for 15-20 min in the dark. The cells were washed three times to remove any unbound antibodies. The cells were then fixed with 0.5% paraformaldehyde (PFA) for 30 min on ice and resuspended in 200-500 μL cell staining buffer for final flow cytometric analysis using an Accuri C6 flow cytometry system (BD Biosciences, San Jose, CA 95131, USA). Data analyses were performed using FlowJo software v8.8 (Treestar Inc. Ashland, OR 97520, USA).
Background levels were determined using the respective secondary antibodies (anti-mFc-FITC for the subclones, or anti-myc-PE for the VUN100 molecules) with CHO cells and CHO-US28 cells. Given that US28 is expressed on the cell surface, the cells were non-permeabilised for these experiments.

[2] = test system: human cancer tissues and adjacent normal tissues; assay: Immunohistochemistry (IHC) on human cancer tissue micro-arrays
Experimental: Cytomegalovirus (CMV) control slides containing CMV positive lung tissue and CMV negative myometrium (product number #3240A) were obtained from Newcomer Supply Inc., Middleton, WI 53562-2579, USA. Tissue micro-arrays (TMAs) were obtained from US Biomax Inc., Derwood, MD 20855, USA, and included tumor tissues #BR1008b, #BS17016c, #BCN721b and normal tissues #FDA662a and heart tissues #HEN241a.
The paraffin sections were sequentially immersed into a. 100% xylene three times (5 min each); b. 100% ethanol twice (2 min each); c. 95% ethanol twice (2 min each). The slides were rinsed twice in water for 5 min to remove ethanol. […], the slides were immersed in 3% H2O2 for 5 minutes and washed thereafter twice (2×) with distilled water. The slides were then immersed in the working citrate buffer (pH 6.0) and covered with a lid. The buffer was heated in the microwave until it had boiled, and then kept in the steamer for 15 min.
The sections were cooled at room temperature for 30 min and washed with PBS. 5% BSA blocking solution was then added to the HIER treated samples and they were incubated at 37° C. for 30 min. The primary antibody was diluted according to the best results from the dilution gradient tests and added to the samples for incubation overnight at 4° C. or 37° C. for 1 h. The slides were then washed three times in PBS on the shaker. The secondary antibodies were used in 1:200 dilution, added to the samples and incubated at 37° C. for 30 min. The slides were washed three times (5 min each) in PBS on the shaker. Strept-Avidin Biotin Complex (SABC) HRP- or AP-conjugated reagents were added, and the samples were incubated in dark at room temperature. The samples were thereafter washed in distilled water, counter stained by hematoxylin, and then dehydrated through gradient ethanol from 70% to 100%, and cleared by 3 times in xylene, 5 min each. Slides were mounted by ACRYMOUNT (StatLab, MicKinney, TX 75069, USA) and cover-slipped. Digitized pictures were taken by Olympus VS120 scanner and analyzed by using OlyVia 3.2 software (Olympus Corporation, 20101 Tokyo, Japan) by senior Pathologist.
We thereafter studied the binding of US28-13-5G6-1D3 rAb to human cancer tissues by using IHC and confirmatory ISH analyses. The results were evaluated by a Senior Pathologist. We found specific staining of the US28-13-5G6-1D3 rAb on several cancer types. Among these were glioblastomas (e.g. glioblastoma grade 4), colonic cancer, rectum cancer, breast cancer (e.g. locally advanced breast cancer and its metastasis), oesophagus cancer, gastric/stomach cancer, pancreas cancer, liver cancer such as hepatocellular carcinoma, lung cancer, malignant pheochromocytoma and cervical cancer, showing for the first time a potential universal role of US28 in pathology of cancer. The staining intensity of different cancer cells were classified as negative=0, weakly positive=1+, moderately positive=2+ or strongly positive=3+. […] In the majority of tumors with a positive US28-13-5G6-1D3 rAb staining, the staining was generally positive in large parts of the tumor cells. The tumor positivity was confirmed by positive finding of HCMV DNA in nucleus of the tumor cells by using ISH. […] The IgG control Ab staining was used as negative control and was negative in all of the studied cancerous and normal tissues.

B1: 7B1F3: mouse IgG1 kappa antibody against US28 ECD1 Peptide-N; VH SEQ ID NO: 211, VL SEQ ID NO: 213 (antibody, V domains shown)
VH: EVQLQQSGAELAKPGASVKMSCKASGYTFTNYWMHWVKQRPGQGLEWIGYVNPRTGYTEYNQKFKDKATLTADKSSRTAYMQLSSLTSEDSAVYSCARILNGTGFAYWGQGTLVTVSA
VL: DIVLTQSPSSLTVSVGEKFTMSCKSSQSLLYSSNQKNYLAWYQQKPGQSPKLLIYWASTRESGVPDRFTGSGSGTDFTLAISSVKPEDLAIYYCQQYYSFPLTFGAGTKLEIK
modifications: Mature form of VH sequence of 7B1F3, without the leader sequence; Mature form of VL sequence of 7B1F3, without the leader sequence
Percentage of binding to CHO cells ([1]; Table 7B, (1:5), secondary antibody background removed): 0.67%

B2: 13-5G6-1D3 rAb: recombinant antibody product of US28-13-5G6-1D3 produced in HEK293-F cells (antibody)
heavy: EVKLVESGGGLVQPGGSLRLACATSGFTFTDYYMSWVRQPPGKALEWLGFIRSKANGYTTEYSASVKGRFTISRDNSQSILYLQMNTLRSEDSATYYCARDERRTAWLAYWGQGTLVTVSAAKTTPPSVYPLAPGSAAQTNSMVTLGCLVKGYFPEPVTVTWNSGSLSSGVHTFPAVLQSDLYTLSSSVTVPSSTWPSETVTCNVAHPASSTKVDKKIVPRDCGCKPCICTVPEVSSVFIFPPKPKDVLTITLTPKVTCVVVDISKDDPEVQFSWFVDDVEVHTAQTQPREEQFNSTFRSVSELPIMHQDWLNGKEFKCRVNSAAFPAPIEKTISKTKGRPKAPQVYTIPPPKEQMAKDKVSLTCMITDFFPEDITVEWQWNGQPAENYKNTQPIMDTDGSYFIYSKLNVQKSNWEAGNTFTCSVLHEGLHNHHTEKSLSHSPGK
light: DVLMTQTPLSLPVSLGDQASISCRSSQSIVHSNGNTYLDWYLQKPGQSPKLLIYKVSNRFSGVPDRFSGSGSGTDFTLKISRVEAEDLGVYYCFQGSHVPTWTFGGGTKLEIKRADAAPTVSIFPPSSEQLTSGGASVVCFLNNFYPKDINVKWKIDGSERQNGVLNSWTDQDSKDSTYSMSSTLTLTKDEYERHNSYTCEATHKTSTSPIVKSFNRNEC
control CHO cells bound ([1]; 1:10 dilution (w/v), blank and secondary Ab controls removed, FIG. 7): 0.77%

B3: US28-13-5G6-1D3: monoclonal antibody against ECD3 of HCMV US28; VH SEQ ID NO: 12, VL SEQ ID NO: 18; rAb is the recombinant product (antibody, V domains shown)
VH: EVKLVESGGGLVQPGGSLRLACATSGFTFTDYYMSWVRQPPGKALEWLGFIRSKANGYTTEYSASVKGRFTISRDNSQSILYLQMNTLRSEDSATYYCARDERRTAWLAYWGQGTLVTVSA
VL: DVLMTQTPLSLPVSLGDQASISCRSSQSIVHSNGNTYLDWYLQKPGQSPKLLIYKVSNRFSGVPDRFSGSGSGTDFTLKISRVEAEDLGVYYCFQGSHVPTWTFGGGTKLEIK
modifications: Mature form of VH sequence of 1D3, without the leader sequence; Mature form of VL sequence of 1D3, without the leader sequence
notes: monoclonal antibody against ECD3 of HCMV US28; rAb is the recombinant product
staining of metastases ([2]; All TNBC (n=8) and HER2 positive (n=11) metastases): positive
samples positive for staining ([2]; Hepatocellular carcinomas): 2/3
samples positive for staining ([2]; cervix cancer samples): 2/3
controls negative for staining ([2]; epithelial cells adjacent to colon adenocarcinoma): 3/3
samples positive for staining ([2]; lung cancer samples): 2/3
samples positive for staining ([2]; pancreas cancer samples): 1/3
number of samples with positive staining ([2]; rectum adenocarcinoma, 3 studied): 3

B4: 13-5G6-1D3: mouse monoclonal IgG1 kappa antibody against US28 ECD3; VH SEQ ID NO: 12, VL SEQ ID NO: 18 (antibody, V domains shown)
VH: B3 VH
VL: B3 VL
modifications: Mature form of VH sequence of 1D3, without the leader sequence; Mature form of VL sequence of 1D3, without the leader sequence
background binding, % of CHO negative control population ([1]; FIG. 21A): 0.88%
IHC staining ([2]; human malignant pheochromocytoma tumor (HCMV positive control), FIG. 19 B): positive staining
adjacent control breast tissues with no cytoplasmic staining ([2]; normal breast epithelial cells): 10/10
